Results: patent publication US20260242448A1 (INSTITUTE OF MICROBIOLOGY CHINESE ACADEMY OF SCIENCES, published 2026)

Tests used:
[1] = target: T1, SARS-CoV-2 (BA.5) Spike RBD (SARS-CoV-2 BA.5 strain); assay: ELISA on plate-coated RBD (1 µg/mL), HRP anti-human Fc detection, OD450
T1 construct: domain: RBD; also called BA.5 RBD

[2] = target: T2, RBD of the S protein of the BA.2.12.1 strain (SARS-CoV-2 BA.2.12.1 strain); assay: as above
T2 construct: domain: RBD; also called BA.2.12.1 RBD

[3] = target: T3, RBD of the S protein of the BA.1.1 strain (SARS-CoV-2 BA.1.1 strain); assay: as above
T3 construct: domain: RBD; also called BA.1.1 RBD

[4] = target: S protein of the SARS-CoV-2 XBB.1.16 strain on pseudo-virus (SARS-CoV-2 XBB.1.16 strain); assay: cell-based or functional assay
[5] = target: T4, S protein of the SARS-CoV-2 BQ.1.1 strain on pseudo-virus (SARS-CoV-2 BQ.1.1 strain); assay: cell-based or functional assay
[6] = target: S protein of the SARS-CoV-2 BA.3 strain on pseudo-virus (SARS-CoV-2 BA.3 strain); assay: cell-based or functional assay
[7] = target: T5, S protein of the SARS-CoV-2 BF.7 strain on pseudo-virus (SARS-CoV-2 BF.7 strain); assay: cell-based or functional assay
[8] = target: T6, S protein of the SARS-CoV-2 XBB.1.5 strain on pseudo-virus (SARS-CoV-2 XBB.1.5 strain); assay: cell-based or functional assay
[9] = target: S protein of the SARS-CoV-2 BA.2 strain on pseudo-virus (SARS-CoV-2 BA.2 strain); assay: cell-based or functional assay
[10] = target: S protein of the SARS-CoV-2 BA.1.1 strain on pseudo-virus (SARS-CoV-2 BA.1.1 strain); assay: cell-based or functional assay
[11] = target: T7, S protein of the SARS-CoV-2 BA.4/5 strains on pseudo-virus (SARS-CoV-2 BA.4/5 strain); assay: cell-based or functional assay
[12] = target: T8, S protein of the SARS-CoV-2 BA.2.75 strain on pseudo-virus (SARS-CoV-2 BA.2.75 strain); assay: cell-based or functional assay
[13] = target: T9, S protein of the SARS-CoV-2 BQ.1 strain on pseudo-virus (SARS-CoV-2 BQ.1 strain); assay: cell-based or functional assay
[14] = target: T10, S protein of the SARS-CoV-2 XBB strain on pseudo-virus (SARS-CoV-2 XBB strain); assay: cell-based or functional assay
[15] = target: T11, S protein of the SARS-CoV-2 BA.1 strain on pseudo-virus (SARS-CoV-2 BA.1 strain); assay: cell-based or functional assay
[16] = target: S protein of the SARS-CoV-2 Delta strain on pseudo-virus (SARS-CoV-2 Delta strain); assay: cell-based or functional assay
[17] = target: T4, S protein of the SARS-CoV-2 BQ.1.1 …; assay: cell-based or functional assay; remark: listed apart in the source
[18] = target: T5, S protein of the SARS-CoV-2 BF.7 strain …; assay: cell-based or functional assay; remark: listed apart in the source
[19] = target: T6, S protein of the SARS-CoV-2 XBB.1.5 …; assay: cell-based or functional assay; remark: listed apart in the source
[20] = target: T7, S protein of the SARS-CoV-2 BA.4/5 …; assay: cell-based or functional assay; remark: listed apart in the source
[21] = target: T8, S protein of the SARS-CoV-2 BA.2.75 …; assay: cell-based or functional assay; remark: listed apart in the source
[22] = target: T9, S protein of the SARS-CoV-2 BQ.1 strain …; assay: cell-based or functional assay; remark: listed apart in the source
[23] = target: T10, S protein of the SARS-CoV-2 XBB strain …; assay: cell-based or functional assay; remark: listed apart in the source
[24] = target: T11, S protein of the SARS-CoV-2 BA.1 strain …; assay: cell-based or functional assay; remark: listed apart in the source

| Binder | EC50 [1] | EC50 [2] | EC50 [3] | Neutralization Effects (IC50) against SARS-CoV-2 pseudo-viruses [4] | Neutralization Effects (IC50) against SARS-CoV-2 pseudo-viruses [5] | Neutralization Effects (IC50) against SARS-CoV-2 pseudo-viruses [6] | Neutralization Effects (IC50) against SARS-CoV-2 pseudo-viruses [7] | Neutralization Effects (IC50) against SARS-CoV-2 pseudo-viruses [8] | Neutralization Effects (IC50) against SARS-CoV-2 pseudo-viruses [9] | Neutralization Effects (IC50) against SARS-CoV-2 pseudo-viruses [10] | Neutralization Effects (IC50) against SARS-CoV-2 pseudo-viruses [11] | Neutralization Effects (IC50) against SARS-CoV-2 pseudo-viruses [12] | Neutralization Effects (IC50) against SARS-CoV-2 pseudo-viruses [13] | Neutralization Effects (IC50) against SARS-CoV-2 pseudo-viruses [14] | Neutralization Effects (IC50) against SARS-CoV-2 pseudo-viruses [15] | Neutralization activity (IC50) against pseudo-virus [16] | Neutralization activity (IC50) against pseudo-virus [17] | Neutralization activity (IC50) against pseudo-virus [18] | Neutralization activity (IC50) against pseudo-virus [19] | Neutralization activity (IC50) against pseudo-virus [20] | also measured |
| --- | --- | --- | --- | --- | --- | --- | --- | --- | --- | --- | --- | --- | --- | --- | --- | --- | --- | --- | --- | --- | --- |
| monoclonal antibody L4.65 (antibody, V domains shown, also called monoclonal antibody 65; 65IgG) VH: QITLKESGPTLVKPTQTLTLTCTFSGFSLSTSGVGVAWIRQPPGKALEWLALIYWDNDKRSSPSLNNRLTITKDTSKNQVVLTMTNMDPEDTATYYCAHFFSHYDSSNYYYGSWFDPWGQGTLVTVSS VL: EIVLTQSPGTLSLSPGERATLSCRASQSFDSRYLGWYQQKSGQAPRLLIYGASSRATGIPDRFSGSGSGTDFTLTISRLEPEDFAVYYCQQFGDSPFTFGQGTKLEIKR | 0.105 nM | 0.0641 nM | 0.00592 nM | 0.0103 µg/mL | 4.58 µg/mL | 0.00044 µg/mL | 0.000446 µg/mL | 0.0137 µg/mL | 0.00039 µg/mL | 0.00028 µg/mL | 0.000377 µg/mL | 0.00194 µg/mL | 2.09 µg/mL | 0.00335 µg/mL | 0.000394 µg/mL | 2.52 ng/mL | > 2000 ng/mL | 2.12 ng/mL | 54.1 ng/mL | 1.38 ng/mL | Neutralization activity (IC50) against pseudo-virus [21]: 11.2 ng/mL; Neutralization activity (IC50) against pseudo-virus [22]: > 2000 ng/mL; Neutralization activity (IC50) against pseudo-virus [23]: 21.4 ng/mL; Neutralization activity (IC50) against pseudo-virus [24]: 1.35 ng/mL |
| monoclonal antibody CoV56 (antibody, V domains shown, also called monoclonal antibody 56; 56IgG) VH: EVQLVESGGGVVQPGGSLRLSCAVSGFTFDDYAMHWVRQAPGKGLDWVSLISGDGSYTYYADSVKGRFTISRDSSKNSLYLQMNSLRTEDTALYYCAKAQTPTLWWLQDAFDIWGQGTMVTVSS VL: not shown | 0.167 nM | 0.0839 nM | 0.0454 nM | 21.7 µg/mL | 15.9 µg/mL | 18.5 µg/mL | 11.7 µg/mL | 11.8 µg/mL | 8.32 µg/mL | 10.8 µg/mL | 7.53 µg/mL | 58.8 µg/mL | 19.6 µg/mL | 15.9 µg/mL | 14.8 µg/mL | > 2000 ng/mL | > 2000 ng/mL | > 2000 ng/mL | > 2000 ng/mL | > 2000 ng/mL | Neutralization activity (IC50) against pseudo-virus [21]: > 2000 ng/mL; Neutralization activity (IC50) against pseudo-virus [22]: > 2000 ng/mL; Neutralization activity (IC50) against pseudo-virus [23]: > 2000 ng/mL; Neutralization activity (IC50) against pseudo-virus [24]: > 2000 ng/mL |
